T1: mouse HIDE1 (mouse, UniProt Q75VT8 22-222)
T1 construct: Endogenous on EL4, YAC-1, J774A.1/J774A.2 cells; also called AB124611; mHIDE1
T1 sequence: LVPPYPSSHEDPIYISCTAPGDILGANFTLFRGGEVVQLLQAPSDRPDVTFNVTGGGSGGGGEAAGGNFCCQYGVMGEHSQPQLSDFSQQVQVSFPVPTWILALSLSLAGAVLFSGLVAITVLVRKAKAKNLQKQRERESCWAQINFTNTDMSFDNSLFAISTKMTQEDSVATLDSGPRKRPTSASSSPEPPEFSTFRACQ

T2: human HIDE1 (human, UniProt A8MVS5 20-230)
T2 construct: Endogenous on U937, HL-60, THP-1 cells, blood monocytes, AML blasts and dendritic cells; also called C19orf38; hHIDE1
T2 sequence: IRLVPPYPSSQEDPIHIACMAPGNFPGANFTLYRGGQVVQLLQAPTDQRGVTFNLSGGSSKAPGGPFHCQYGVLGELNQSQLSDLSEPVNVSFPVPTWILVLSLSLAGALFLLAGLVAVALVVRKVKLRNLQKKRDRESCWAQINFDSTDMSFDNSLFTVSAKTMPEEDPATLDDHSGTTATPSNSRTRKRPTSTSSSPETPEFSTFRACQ

B1: CPA.12.011 Fab (B03 S400-01.E01) (Fab, V domains shown)
VH: EVQLVESGGGLVQPGGTLRLSCVVSGFTFSSYAMSWVRQAPGKGLEWVSGISGSGGSTYISSGRTYRSTYYADSVKGRFTIARDNSENTLFLQLNSLRAEDTAIYYCAKVNSGEYAHTFDYWGQGTLVTVSS
VL: DIQMTQSPSSLSASVGDRVTITCRASQGISNYLVWYQQKPGKAPKSLIYAASSLQSGVPSRFSGSGSGTDFTLTISSLQPEDFATYYCQQYNYYPITFGQGTRLEIKR
notes: XOMA031 library Fab in periplasmic extract
B2: CPA.12.003 Fab (A03 S397-01.A12) (Fab, V domains shown)
VH: QVQLQESGPGLVTPSETLSLTCTVSGGSISSVSYYWGWVRQPPGKGLEWIGSIYYSGTTAHNPSLKSRVTMAVDTSKNQFSLSLSSVTAADTAVYFCARGWRYYEDYYFDHWGQGTLVTVSS
VL: DIQMTQSPSTLSASVGDRVTITCRASQSINRWLAWYQQKPGKAPKILIYTASSLESGVPSRFSGSGSGTEFTLTISSLQPDDFATYYCQQYNSYPITFGQGTRLEIKR
notes: as for B1
B3: CPA.12.009 Fab (A10 S398-02.A04) (Fab, V domains shown)
VH: QMQLVQSGAEVKKPGASVKVSCKASGYTFTTHAFSWVRQAPGLGLEWMGWISTYNGNTKYEQKFQGRVTLTTDSSTNTAYMELRSLRSDDTAVYYCVRDSRAFDVWGQGTMVTVSS
VL: DIQLTQSPSFLSASVGDRVTITCRASQGINSYLAWYQQKPGAAPKLLIYAASTLQSGVPSRFSGSGSGTEFTLTISSLQPEDFATYYCQQLNTYPLIFGQGTRLEIKR
notes: as for B1
B4: CPA.12.001 Fab (A01 S397-01.A04) (Fab, V domains shown)
VH: QVQLVESGGGLVQPGRSLRLSCAASGFTFSSYGMHWVRQAPGKGLEWVAVISYDGSNKYYADSVKGRFTISRDNSKNTLYLQMNSLRAEDTAVYYCASEGVDFWSGLDYWGQGTLVTVSS
VL: QSALTQPRSASGSAGQSVTISCTGTSSDVGGHNYVSWYQQFPGKAPKLLIYEVSHRPSGVPDRFSGSKSGNTASLTVSGLQAEDEADYYCSSYADLNNLMFGGGTKLTVLG
notes: as for B1
B5: CPA.12.007 Fab (A08 S398-01.E08) (Fab, V domains shown)
VH: EVQLVESGGGVVQPGESLRLSCAASGFTFSSYGFHWVRQSPGEGLEWLAVISYDGTSKSYADSVKGRFTVSRDNSKETLYLQLSSLRREDTALYYCARDTWGYYYGMDVWGQGTTVTVSS
VL: DIQMTQSPSFLSGSVGDRVSISCRASQDIRSHLAWYQRKPGEAPKLLIYTASSLQGGVPLRFSGSGSGTEFTLTISSLQPEDSATYYCQHLHLYPLTFGGGTKLEIKR
notes: as for B1
B6: CPA.12.004 Fab (A04 S397-01.D06) (Fab, V domains shown)
VH: EVQLVETGGGLIQPGRSLRLSCVASDFRFSNHAMHWVRQAPGKELEWVAVISSDGSNRQYAYSVKGRFTISRDNSKNTLYLEMNILGPEDTAVYFCVRSHLGPEWYYGMDVWGQGTTVTVSS
VL: DIQMTQSPSSLSTSVGDSVTITCRSSQSISTFLSWFQHKPGKAPNLLIYDASSLQSGVPSRFSGSGSGTDFTLTISSLQPEDFATYYCQQSDYLPFTFGPGTKVEIKR
notes: as for B1
B7: CPA.12.005 Fab (A06 S397-01.H07) (Fab, V domains shown)
VH: QVQLVESGGGVVQPGRSLRVSCAVSGFTFSSYGMHWVRQAPGGGLEWVAVMSYEGSFRHYADSVKGRFTISRDNSKNTLFLQMDSLRAEDTAVYYCARDRPAGYTSGWGILDYWGQGTLVTVSS
VL: EIVMTQSPATLSLSPGERATLSCRASQSVSSYLAWYQQKPGQAPRLLIYDASNRATGIPARFSGSGSGTDFTLTISSLEPEDFAVYYCQQRSNWPLTFGGGTKVDIKR
notes: as for B1
B8: CPA.12.006 Fab (A07 S398-01.D09) (Fab, V domains shown)
VH: EVQLVESGGGVVQPGRSLRLSCAASGFTFSSFAMHWVRQAPGKGPEWLGIILYEGGHVVYADSVRGRLTISRDNSKNTLYLQMDSLRDEDTAVYYCAKGFYHAFDVWGQGTMVTVSS
VL: QAVLTQPASLSASPGASASLTCTLRSGINVGTYRIYWYQQKPGSPPQYLLRYKSDSDKQQGSGVPSRFSGSKDASANAGILLISGLQSEDEADYYCMIWHSSAWVFGGGTQLTVLG
notes: as for B1
B9: CPA.12.002 Fab (A02 S397-01.A08) (Fab, V domains shown)
VH: EVQLVESGGGLVQPGRSLRLSCAASGFTFSSYAMHWVRQVPGKGLEWVAVISYDGSNKYYADSVKGRFTISRDNSKNTLYLQMNSLRAEDTAVYYCAKPMYSSGWYPLGYWGQGTLVTVSS
VL: DIVMTQTPLSLPVTPGQPASISCRSSQSPLDTDGNTYLDWYLQRPGQSPQLLIYTLSNRASGVPDRFSGSGSGTDFTLKISRVEAEDVGIYYCMQRIQYPLTFGPGTRLEIKR
notes: as for B1
B10: CPA.12.014 Fab (B12 S404-01.E06) (Fab, V domains shown)
VH: QVTLKESGPALVTPTQNLTLTCTVSGGSISSSSYYWGWIRQPPGKGLEWIGSIYYSGSTYYNPSLKSRVTISVDTSKNQFSLKLSSVTAADTAVYYCARRRNSSGWFYFDYWGQGTLVTVSS
VL: QSVLTQPPSVSGAPRQRVTISCSGSRSNIGDNAVNWYQHPPGKAPKLLIYYDDLLPSGVSDRFSGSKSGTSASLAISGLQSEDEADYYCATWDDSLNGHVFGTGTKLTVLG
notes: as for B1
B11: CPA.12.001 human IgG4 (antibody, V domains shown)
VH: B4 VH
VL: B4 VL
notes: also called CPA.12.001-H4
B12: CPA.12.002 human IgG4 (antibody, V domains shown)
VH: B9 VH
VL: B9 VL
notes: also called CPA.12.002-H4
B13: CPA.12.003 human IgG4 (antibody, V domains shown)
VH: B2 VH
VL: B2 VL
notes: also called CPA.12.003-H4
B14: CPA.12.004 human IgG4 (antibody, V domains shown)
VH: B6 VH
VL: B6 VL
notes: also called CPA.12.004-H4

Key:
[1] = target: T3, HIDE1_HH-1 (Human ECD + human IgG1 Fc mutated C220S at hinge), without SP (human); assay: SPR (ProteOn), Fab PPE over captured HIDE1-HH-1, 1:1 fit
T3 construct: Batch #280 in the Serotec and phage display work; also called HIDE1 hECD-hIg; HIDE1 (H:H) recombinant Fc fusion protein
Description: Preliminary Fab binding kinetics were determined using Fab PPEs produced as described in paragraph [001064] (“Fab PPE production”)[001064]. Studies were conducted using Biacore 3000 and ProteOn XPR 36 instruments at 22° C.
A high density goat anti-human Fc antibody (Invitrogen) was immobilized by standard amine coupling over all lanes of a GLC chip using a ProteOn XPR 36 biosensor (Biorad). This surface was used to capture the recombinant HIDE1-H:H fusion protein (GenScript Lot 393383-21, batch #280) or a control Fc fusion protein (CD155, Sino Biologicals) in the vertical flow-cell direction at a concentration of ˜0.5 μg/mL for 90 seconds.

[2] = target: T1, mouse HIDE1; assay: FACS on 293T-moHIDE1 cells, human IgG4
Description: (§1) FACS screening of reformatted IgG4 antibodies: The cell lines described in paragraph [001066] (“FACS screening of PPE”) were mixed with FACS buffer containing the purified anti-HIDE1 IgGs or isotype controls. […] Cells were washed again and fluorescence was detected using an Intellicyt HTFC screening system (Intellicyt). Data were analyzed using FCS Express (DeNovo) and plotted for affinity calculations (KD) in GraphPad Prism (GraphPad Software, Inc.). Note that each anti-HIDE1 antibody was tested over a titration range from 0-80 μg/mL.
(§2) Overview of FACS binding results for human IgG4 antibodies reformatted from Fab screening hits. […] IgGs from the same H-CDR3 family are indicated by the same color, either blue or green. CPA.12.003 & CPA.12.008 have identical heavy chain CDR-3 regions and minor differences in framework regions or other CDRs. The same holds for CPA.12.004 & CPA.12.013. N.B. not binding.

[3] = target: T2, human HIDE1; assay: FACS titration on 293T-huHIDE1 cells, human IgG4 (preliminary FACS KD)
Description: as §1, §2

T3 sequence (chain, as listed by the source C220S C220S limits assumed): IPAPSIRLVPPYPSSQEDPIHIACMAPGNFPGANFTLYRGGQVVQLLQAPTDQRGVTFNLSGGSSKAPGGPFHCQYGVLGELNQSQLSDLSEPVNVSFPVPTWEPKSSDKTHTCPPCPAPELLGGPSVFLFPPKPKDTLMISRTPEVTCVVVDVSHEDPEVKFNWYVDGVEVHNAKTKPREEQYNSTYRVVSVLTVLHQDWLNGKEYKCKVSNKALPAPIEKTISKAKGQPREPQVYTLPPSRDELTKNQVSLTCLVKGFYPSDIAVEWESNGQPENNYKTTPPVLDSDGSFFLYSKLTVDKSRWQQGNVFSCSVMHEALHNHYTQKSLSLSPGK

| Binder | Kd [1] [nM] | koff [1] [s⁻¹] | kon [1] [M⁻¹ s⁻¹] | binding result [2] | Kd [3] [nM] |
| --- | --- | --- | --- | --- | --- |
| B1 | 0.64 | 0.00019 | 290000 | – | – |
| B2 | 0.91 | 0.00022 | 250000 | – | – |
| B3 | 1 | 0.0014 | 1.4e+06 | – | – |
| B4 | 1.2 | 0.00081 | 670000 | – | – |
| B5 | 1.6 | 0.00034 | 210000 | – | – |
| B6 | 2.1 | 0.0033 | 1.6e+06 | – | – |
| B7 | 2.3 | 0.001 | 440000 | – | – |
| B8 | 3.9 | 0.00027 | 68000 | – | – |
| B9 | 8 | 0.00083 | 100000 | – | – |
| B10 | 37 | 0.0037 | 99000 | – | – |
| B11 | – | – | – | no binding (tested: titration 0-80 µg/mL) | 61 |
| B12 | – | – | – | no binding (tested: titration 0-80 µg/mL) | 6.4 |
| B13 | – | – | – | no binding (tested: titration 0-80 µg/mL) | 18 |
| B14 | – | – | – | no binding (tested: titration 0-80 µg/mL) | 1.4 |
